The target in series [1] is T1, DDX21 helicase core WT (human, UniProt Q9NR30 188-563).
T1 sequence: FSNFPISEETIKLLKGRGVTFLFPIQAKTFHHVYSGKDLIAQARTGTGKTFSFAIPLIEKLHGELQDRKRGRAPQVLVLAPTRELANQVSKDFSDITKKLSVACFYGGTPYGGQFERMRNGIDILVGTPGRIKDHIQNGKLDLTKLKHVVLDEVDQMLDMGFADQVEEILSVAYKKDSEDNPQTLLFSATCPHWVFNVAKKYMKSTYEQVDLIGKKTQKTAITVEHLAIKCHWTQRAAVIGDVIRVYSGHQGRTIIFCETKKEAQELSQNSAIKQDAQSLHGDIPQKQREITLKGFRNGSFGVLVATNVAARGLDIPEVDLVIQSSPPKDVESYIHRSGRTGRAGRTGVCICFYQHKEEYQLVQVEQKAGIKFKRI
In words: SEC co-elution.

Series [2] concerns the target T1, DDX21 helicase core WT. In words: MST.

For the molecule UUUUUUUUUUUUUUU (ssRNA) [U15 RNA (SEC)], in series [1], the binding result was “binds”. As for UUUUUUUUUUUUUUU (ssRNA) [U15 RNA, 5'-FAM], in series [2], the binding result is reported as “binds”.
